Common to all, as to details: remark: other sources report otherwise
The target in assay [1] is T1, Human kallikrein (analyte in the Biacore assay) (human), P03952. Put plainly: SPR, Biacore T200, 25 C, HBS-EP+; antibody captured on the chip through Fc, human kallikrein (activated, purified from human plasma) as analyte. In general terms: Surface plasmon resonance follows binding to a sensor surface in real time, without labels.
Assay [2] concerns the target T1, Human kallikrein (analyte in the …). Described as above. This is another data set of the same source.
The target is the same in assay [3]. Put plainly: SPR, Biacore T200, 25 C, HBS-EP+; antibody captured through Fc, human kallikrein as analyte; full length antibody.

“And” between values parts separate entries of the source, which are not always exact repeats. Equal values may be shown once.

T1 sequence (P03952 20-638 limits assumed): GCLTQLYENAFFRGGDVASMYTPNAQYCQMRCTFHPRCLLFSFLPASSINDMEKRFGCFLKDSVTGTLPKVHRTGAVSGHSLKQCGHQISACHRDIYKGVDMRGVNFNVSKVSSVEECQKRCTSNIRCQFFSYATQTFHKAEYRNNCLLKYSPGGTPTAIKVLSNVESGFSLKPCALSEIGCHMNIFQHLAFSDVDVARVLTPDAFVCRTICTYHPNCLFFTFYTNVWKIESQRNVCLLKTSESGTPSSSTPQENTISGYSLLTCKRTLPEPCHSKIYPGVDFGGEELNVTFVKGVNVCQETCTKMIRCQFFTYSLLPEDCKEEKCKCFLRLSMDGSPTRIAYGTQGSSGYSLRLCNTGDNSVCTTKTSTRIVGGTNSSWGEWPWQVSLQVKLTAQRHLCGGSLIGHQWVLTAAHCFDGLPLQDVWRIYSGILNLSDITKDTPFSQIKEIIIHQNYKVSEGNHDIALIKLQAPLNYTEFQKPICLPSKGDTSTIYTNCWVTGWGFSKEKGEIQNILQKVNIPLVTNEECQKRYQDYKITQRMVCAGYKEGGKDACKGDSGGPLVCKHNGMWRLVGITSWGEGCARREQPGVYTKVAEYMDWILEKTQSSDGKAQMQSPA

B1: Lanadelumab (full length anti-pKal antibody) (antibody, IgG1, V domains shown)
VH: EVQLLESGGGLVQPGGSLRLSCAASGFTFSHYIMMWVRQAPGKGLEWVSGIYSSGGITVYADSVKGRFTISRDNSKNTLYLQMNSLRAEDTAVYYCAYRRIGVPRRDEFDIWGQGTMVTVSS
VL: DIQMTQSPSTLSASVGDRVTITCRASQSISSWLAWYQQKPGKAPKLLIYKASTLESGVPSRFSGSGSGTEFTLTISSLQPDDFATYYCQQYNTYWTFGQGTKVEIK
With B1, in assay [1], the koff (as a rule, the first-order rate constant of dissociation) worked out at 0.000347 s⁻¹ and the kon (as a rule, a measure of how fast the partners come together) is 199000 M⁻¹ s⁻¹. Moreover, in assay [2], the equilibrium dissociation constant (Kd) (usually the equilibrium constant for the complex coming apart) was 6.73 nM and 5.76 nM and 5.54 nM; the koff was 0.000315 s⁻¹ and 0.000297 s⁻¹ and 0.000291 s⁻¹; the kon is 51500 M⁻¹ s⁻¹ and 52600 M⁻¹ s⁻¹ and 46700 M⁻¹ s⁻¹. The molecule further showed a Kd in assay [3] of 1.74 nM.

Values taken from US20250326861A1.
